Source: publication doi:10.1101/2023.04.03.535218, “Distributable, Metabolic PET Reporting of Tuberculosis” (bioRxiv, 2023)

B1: OtsB (Escherichia coli K-12) (protein)
chain: MTEPLTETPELSAKYAWFFDLDGTLAEIKPHPDQVVVPDNILQGLQLLATASDGALALISGRSMVELDALAKPYRFPLAGVHGAERRDINGKTHIVHLPDAIARDISVQLHTVIAQYPGAELEAKGMAFALHYRQAPQHEDALMTLAQRITQIWPQMALQQGKCVVEIKPRGTSKGEAIAAFMQEAPFIGRTPVFLGDDLTDESGFAVVNRLGGMSVKIGTGATQASWRLAGVPDVWSWLEMITTALQQKRENNRSDDYESFSRSI
notes: expressed in E. coli
B2: OtsB^Sf (Escherichia coli K-12) (protein)
chain: B1 chain
notes: purified on Ni-NTA

Key:
continuous 1H NMR assay = substrate: O=P(O)(O)OC[C@H]1O[C@H](O[C@H]2O[C@H](CO)[C@@H](O)[C@H](O)[C@H]2O)[C@H](O)[C@@H](O)[C@@H]1O; experiment: continuous 1H NMR assay; format: biochemical, Escherichia coli; settings: 37 °C
Source text: continuous 1H NMR assay on OtsB

[1] = substrate: O=P(O)(O)OC[C@H]1O[C@H](O[C@H]2O[C@H](CO)[C@@H](O)[C@H](O)[C@H]2O)[C@H](O)[C@@H](O)[C@@H]1O; experiment: table note: endpoint HPLC; Methods: malachite green assay; format: biochemical, Escherichia coli; settings: method note of the table (HPLC, fixed Glc, 70 °C) does not fit this enzyme
Source text: table note: endpoint HPLC; Methods: malachite green assay on OtsB^Sf

Protein	Km (continuous 1H NMR assay) [mM]	kcat (continuous 1H NMR assay) [s⁻¹]	kcat/Km (continuous 1H NMR assay) [M⁻¹ s⁻¹]	Km [1] [mM]	kcat [1] [s⁻¹]	kcat/Km [1] [M⁻¹ s⁻¹]
B1	3.6 ± 0.8	286 ± 34	79000			
B2				2.8 ± 0.7	740 ± 96	264000
